Experiment [1] concerns the target FcγRIIB-Fc fusion protein (soluble dimeric FcγRIIB) (human) (UniProt P31994). Nature of the experiment: SPR.
Experiment [2] deals with soluble monomeric FcγRIIIA-linker-AVITAG (158V), biotinylated (human) (UniProt P08637). Nature of the experiment: SPR.
Target sequence in this assay (P08637 17-203 F176V limits assumed, form in doubt): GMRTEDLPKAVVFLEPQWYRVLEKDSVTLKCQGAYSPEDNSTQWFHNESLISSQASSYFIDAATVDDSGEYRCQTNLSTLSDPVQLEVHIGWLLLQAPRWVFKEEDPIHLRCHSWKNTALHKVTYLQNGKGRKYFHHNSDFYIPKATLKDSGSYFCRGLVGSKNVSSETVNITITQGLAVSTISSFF
Experiment [3] deals with FcγRIIB-Fc fusion protein (soluble dimeric FcγRIIB) (human) (UniProt P31994). The experiment can be described thus: SPR. This is another data set of the same source.
Experiment [4] addresses soluble monomeric FcγRIIIA-linker-AVITAG (158V), biotinylated (human) (UniProt P08637). Nature of the experiment: ELISA.
For experiment [5], the target named is FcγRIIB-Fc fusion protein (soluble dimeric FcγRIIB) (human) (UniProt P31994). Nature of the experiment: ELISA.
Experiment [6] shares this target. The experiment can be described thus: BIAcore, separate fits at two concentrations of FcγRIIB-Fc, average (Table 18 prints 0.085).
Experiment [7] concerns the target yeast-displayed wild type CH1-CH3 Fc fusion (pYD-CH1) (human) [IgG part: P01857]. Nature of the experiment: FACS titration on yeast, MFI, nonlinear regression.
Another experiment addresses monomeric human IgG. The experiment can be described thus: ELISA: plate coated with human IgG, receptor titrated, detection with DJ130c and anti-mouse peroxidase.
For experiment [8], the target named is C1q. Nature of the experiment: SPR (BIAcore): 2B6 antibody captured on soluble CD32B (2bLAvi) on a CM-5 chip, C1q injected in a dilution series.
Sequence of C1q (P02745 23-245, chain 1 of 3): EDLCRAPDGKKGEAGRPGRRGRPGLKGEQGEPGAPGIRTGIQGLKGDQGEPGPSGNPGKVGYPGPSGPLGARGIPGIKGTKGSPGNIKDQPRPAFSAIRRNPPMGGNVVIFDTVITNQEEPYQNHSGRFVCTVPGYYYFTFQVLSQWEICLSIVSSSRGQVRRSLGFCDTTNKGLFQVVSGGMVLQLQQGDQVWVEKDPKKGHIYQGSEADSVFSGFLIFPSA
Sequence of C1q (P02746 28-253, chain 2 of 3, further chain): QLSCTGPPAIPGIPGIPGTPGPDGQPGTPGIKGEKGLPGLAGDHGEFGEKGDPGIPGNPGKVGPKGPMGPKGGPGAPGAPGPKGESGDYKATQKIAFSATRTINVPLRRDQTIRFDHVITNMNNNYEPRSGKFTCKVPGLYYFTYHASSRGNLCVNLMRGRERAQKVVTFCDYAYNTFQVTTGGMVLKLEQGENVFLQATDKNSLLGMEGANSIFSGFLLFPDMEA
Sequence of C1q (P02747 29-245, chain 3 of 3, further chain): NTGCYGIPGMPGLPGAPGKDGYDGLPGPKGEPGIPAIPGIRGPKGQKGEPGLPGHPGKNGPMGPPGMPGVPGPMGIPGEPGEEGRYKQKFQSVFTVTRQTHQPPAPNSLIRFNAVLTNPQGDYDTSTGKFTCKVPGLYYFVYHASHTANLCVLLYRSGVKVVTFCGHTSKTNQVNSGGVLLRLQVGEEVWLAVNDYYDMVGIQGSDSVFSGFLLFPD
The target in experiment [9] is C1q. Nature of the experiment: SPR (BIAcore): 2B6 antibody captured on soluble CD32B (2bLAvi) on a CM-5 chip, C1q injected at 0.8-26 nM.

pKd: −log10 of the molar value. Where two headings read alike, the source gives them in different places.

Sequence of FcγRIIB-Fc fusion protein (soluble dimeric FcγRIIB) (human) (P31994 43-217): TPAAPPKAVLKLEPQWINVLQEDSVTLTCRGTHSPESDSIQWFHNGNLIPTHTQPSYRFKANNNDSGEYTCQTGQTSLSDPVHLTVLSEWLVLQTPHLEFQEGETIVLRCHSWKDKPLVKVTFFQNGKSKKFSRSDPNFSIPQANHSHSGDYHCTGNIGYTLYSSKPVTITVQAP

With “chimeric 4-4-20 anti-fluorescein antibody, wild type Fc”, the pKd in experiment [1] is 7.21; in experiment [2] it was 6.50; in experiment [3], 7.03. Also, the off-rate constant (koff) in experiment [1] was 0.085 s⁻¹; in experiment [3] it was 0.094 s⁻¹; in experiment [6], 0.0847 s⁻¹. The kon in experiment [2] turned out to be 600000 M⁻¹ s⁻¹. Also, the ELISA, OD is 0.5 OD in [4] and 0.4 OD in experiment [5].

Take “soluble FcγRIIIA tetrameric complex (from UniProt P08637 1-203) (receptor)”: in experiment [7], the negative-log Kd (pKd) was 8.22. The substance further came in with an EC50 (read off the curve) in the experiment with monomeric human IgG of 1 µg/mL.

Turning to “2B6 (lower panel of FIG. 36B, Fc region not labelled) (antibody)”, in the experiment with C1q [8], the pKd is 8.15 and the koff came out at 0.06 s⁻¹.

In turn, “ch4-4-20 K392T, P396L (from UniProt P01857 1-330) (antibody)” showed a negative logarithm of the Kd (pKd) in [2] of 7.08.

As to “2B6 (upper panel of FIG. 36B, Fc region not labelled) (antibody)”, the koff in the experiment with C1q [9] was determined as 0.13 s⁻¹.

As for ch4-4-20 S415I, L251F (antibody), the fold vs wt was 0.5 x increase in [4] and 0.75 x increase in experiment [5].

Source of the values: US20070036799A1.
